Results on four molecules are retold here after paper PMC5526873, “Tonoplast-localized nitrate uptake transporters involved in vacuolar nitrate efflux and reallocation in Arabidopsis” (Scientific Reports, 2017).

By Km is commonly meant the concentration of substrate that gives half-maximal velocity.

One data set addresses T1, CHL1 (Arabidopsis thaliana, UniProt Q05085).
T1 construct: gene NPF6.3; cRNA-injected Xenopus laevis oocytes, positive control
T1 sequence (Q05085 1-590): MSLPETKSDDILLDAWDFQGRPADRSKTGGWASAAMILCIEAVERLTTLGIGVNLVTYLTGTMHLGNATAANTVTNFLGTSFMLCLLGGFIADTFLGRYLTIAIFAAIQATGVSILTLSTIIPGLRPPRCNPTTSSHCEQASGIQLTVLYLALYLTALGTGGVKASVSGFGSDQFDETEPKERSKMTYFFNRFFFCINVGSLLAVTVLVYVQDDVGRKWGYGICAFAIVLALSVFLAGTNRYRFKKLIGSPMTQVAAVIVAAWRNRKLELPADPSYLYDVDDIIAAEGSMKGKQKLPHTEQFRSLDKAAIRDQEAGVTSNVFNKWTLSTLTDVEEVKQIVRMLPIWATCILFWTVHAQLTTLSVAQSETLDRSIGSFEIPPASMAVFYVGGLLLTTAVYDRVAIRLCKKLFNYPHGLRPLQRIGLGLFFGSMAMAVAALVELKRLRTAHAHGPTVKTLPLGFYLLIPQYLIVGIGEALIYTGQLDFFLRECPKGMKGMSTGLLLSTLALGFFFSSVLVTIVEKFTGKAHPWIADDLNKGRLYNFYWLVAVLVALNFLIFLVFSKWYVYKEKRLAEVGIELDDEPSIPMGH
Put plainly: […]-nitrate uptake in cRNA-injected Xenopus oocytes, mass spectrometry. In kind it is cell-based. Particulars: pH 5.5, 0.25 mM 15N-nitrate, 12 h; positive control; labelled compound (15N).

Substrate in data set [1]: O=[N+]([O-])O
Put plainly: cells, lysate or membranes. In kind it is cell-based, Arabidopsis thaliana. To be noted: pH 5.5, 1.5 h, 0.25-30 mM, labelled compound (15N).

For `O=[N+]([O-])O` [nitrate], the “15N-nitrate uptake in cRNA-injected Xenopus oocytes, mass spectrometry” value on CHL1 was “CHL1-injected oocytes still showed high uptake activity”.

B1: NPF5.11 (Arabidopsis thaliana) (protein)
chain: MAITYSSADELGNTTEGFLEIRENTSGGWKSARLIIVVQMAERFAYFGIASNLIMYLTGPLGESTAAAAANVNAWTGTVAFLPLLGGFLADSYLGRFRTIIISSSLYILGLGLLSFSTMIPSHQSKDSNQLQETIFFFSLYLVAIGQGGYNPCIKVFGADQFDGNDHKEARDKSSFFNWLMFGNCISILTTRLVSTYIQENLSWSLGFGIPSVSMLLSLFLFLLGTTSYRFSTERVGKKNPFARISRVFMEALKNRRQPDLDIANANANETLLLLAHQSSKQFRFLDRAAISCELAEIEEAKAVLRLIPIWITSVVYTIVHAQSPTFFTKQGATMDRSISPGLLVPAATLQSFINLSVVVFIPIYDRLLVPFARSFTQNSSGITTLQRIGTGIFLSILAMVLAALVETKRLQAARDELSIPMSVWWLIPQYVIFGVSDMFTMVGLQEFFYGQVPSELRSVGMALNLSIYGAGNYLSSFMISVIDKITNQYGQRSWFDNDLDQAHLDYFYWLLACLGFIGFAFYLWFAKSYVYSRSNTF
notes: cDNA in oocyte vector pOO2, cRNA-injected Xenopus laevis oocytes; EYFP fusion used for localization
B1: the Km in data set [1] stood at 2570 µM.

B2: NPF5.12 (Arabidopsis thaliana) (protein)
chain: MSTSIGDNETGAIVSNENVEFSVDFRGNPSIRSSSGAWKSSGFTMCAEVAEKFAYFGIASNLITYFTEALGESTAVAASNVNLWLGTAAFLPLIWGSIADSFLGRFRTILLTSSFYIMGLGLLTFSATIPSLCNDQETRESCVSQVKVIIFFCALYLIALGEGGFKVCLRAFGADQFDEQDPNESKAKSSYFNWLYFAISIGILTTRLVTNYVQENLSWALGYAIPCLSMMLALFLFLLGIKTYRFSTGGEGRQGKKHDNPFVRIGRVFVAAARNRRQTPSDTCLLLPNESTKKFRFLDRAVISCDSYEVEEAKAVLSLIPIWLCSLVFGIVFAQSPTFFTKQGSTMDRSISSTLQVPAATLQCFISLAILVFIPIYDRLFVPIARSITRKPAGITTLQRISTGIFLSIISMVIAALVEMKRLKTARDHGLVDSPKATVPMSVCWLIPQYILFGVSDVFTMVGLQEFFYGEVPPQLRSMGLALYLSIIGIGNFLSSFMVSVIEEATSQSGQVSWFSNNLNQAHLDYFYWLLACLSSLAFIFTVYFAKSYLYNSPK
notes: as for B1
For the molecule B2, the Km in data set [1] was 4840 µM.

B3: NPF5.16 (Arabidopsis thaliana) (protein)
chain: MAIAEEEAALIEDSVSDSVDHRGLPAGKSSTGGWRSAWYIIGVEVGERFAYFGIGSNLITYLTGPLGQSTATAAVNVNTWSGTASILPVLGAFIADAYLGRYRTIVVASLIYILGLGLLTLSSILILMGLSEQRQHNRNASAKPFFWVNILFFCSLYLVAIGQGGHKPCVQAFGADQFDVGDPKERISRGSFFNWWFLSLSAGITLSIIVVVYVQDNVNWALGFGIPCLFMVMALALFLFGRKTYRYPRGDREGKNNAFARIGRVFLVAFKNRKLKLTHSGQLEVGSYKKCKGQLEFLAKALLPGEGGVEPCSSRDVEDAMALVRLIPIWITSVVSTIPYAQYATFFTKQGVTVDRKILPGFEIPPASFQALIGLSIFISVPTYERVFLPLARLITKKPSGITMLQRIGAGMVLSSLNMVVAALVEMKRLETAKEHGLVDRPDATIPMSIWWFVPQYLLLGMIDVFSLVGTQEFFYDQVPTELRSIGLALSLSAMGLASFLSGFLITVINWATGKNGGDSWFNTNLNRAHVDYFYWLLAAFTAIGFLAFLLLSRLYVYRRVDQV
notes: as for B1
B3: the Km in data set [1] turned out to be 2910 µM.
